Assay [1] addresses human glucagon-like peptide 1 receptor (GLP-1R) (human, UniProt P43220 24-463). Nature of the assay: cell-based or functional assay.
Assay [2] deals with human glucagon receptor (Glucagon-R) (human, UniProt P47871 26-477). Nature of the assay: cell-based or functional assay.
Sequence of human glucagon receptor (Glucagon-R) (P47871 26-477): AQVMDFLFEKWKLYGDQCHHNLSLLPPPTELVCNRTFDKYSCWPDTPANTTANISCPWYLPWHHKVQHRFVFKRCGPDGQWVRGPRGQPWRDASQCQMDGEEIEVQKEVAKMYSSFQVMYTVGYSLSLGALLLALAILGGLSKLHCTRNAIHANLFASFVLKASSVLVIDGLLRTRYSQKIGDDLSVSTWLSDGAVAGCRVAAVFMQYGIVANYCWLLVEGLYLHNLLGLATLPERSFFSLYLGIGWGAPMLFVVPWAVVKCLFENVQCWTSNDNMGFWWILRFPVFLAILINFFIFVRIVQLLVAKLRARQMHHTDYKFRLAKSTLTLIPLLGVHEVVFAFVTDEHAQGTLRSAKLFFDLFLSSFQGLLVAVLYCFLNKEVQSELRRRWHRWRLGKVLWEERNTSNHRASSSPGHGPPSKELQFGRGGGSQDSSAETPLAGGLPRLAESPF

B1: Compound 3 (H-HSQGTFTSDYSKYLDRARADDFVAWLKST-NH2) (peptide)
peptide: H-HSQGTFTSDYSKYLDRARADDFVAWLKST-NH2
In the case of B1, the “EC50, cAMP content in HEK293 cells expressing hGLP-1-R (FlashPlate cAMP kit)” value in assay [1] came to 9.3 µM. Moreover, in assay [2], the “EC50, cAMP content in HEK293 cells expressing hGlucagon-R (FlashPlate cAMP kit)” value came out at 7.3 µM and the “EC50, cAMP content in HEK293 cells expressing hGlucagon-R (FlashPlate cAMP kit), re-test” value came out at 0.00049 µM.

The values are drawn from patent US20100204105A1 (ZEALAND PHARMA A S, published 2010).
